B1: TERF2 (protein, UniProt O35144 1-541, looked up)
Telomeric repeat-binding …: MAAGAGTAGPASGPGVVRDPMASQPRKRPSREGGEGGEGERRSNTMAGGGGSSDSSGRAASRRASRSGGRARRGRHEPGLGGAAERGAGEARLEEAVNRWVLKFYFHEALRAFRSSRYRDFRQIRDIMQALLVRPLGKEHTVSRLLRVMQCLSRIEEGENLDCSFDMEAELTPLESAINVLEMIKTEFTLTDSMVESSRKLVKEAAVIICIKNKEFEKASKILKKYMSKDPTTQKLRTDLLNIIREKNLAHPVIQNFSYEVFQQKMLRFLESHLDDTEPYLLTMAKKALKSESAASSTMREEKHPEPVEKPLREPPSRQPQNPPATIGIRTLKAAFKALSTAQDSEAAFAKLDQKDLVLANLASPSSPAHKHKRPRKDEHESAAPAEGEGGSDRQPRNSPMTISRLLLEEDSQSTEPSPGLNSSHKAMSASKPRALNQPHPGEKKPKASKDKWNSPNGLEEKEVWLEEDQLFEVQAPGEDRSSSLTRKQKWTIEESEWVKDGVRKYGEGNWAAISKSYPFVNRTAVMIKDRWRTMKKLGMN
B2: TFDP3 (protein, UniProt Q5H9I0 1-405, looked up)
Transcription factor Dp …: MAKYVSLTEANEELKVLMDENQTSRPVAVHTSTVNPLGKQLLPKTFGQSSVNIDQQVVIGMPQRPAASNIPVVGSPNPPSTHFASQNQHSYSSPPWAGQHNRKGEKNGMGLCRLSMKVWETVQRKGTTSCQEVVGELVAKFRAASNHASPNESAYDVKNIKRRTYDALNVLMAMNIISREKKKIKWIGLTTNSAQNCQNLRVERQKRLERIKQKQSELQQLILQQIAFKNLVLRNQYVEEQVSQRPLPNSVIHVPFIIISSSKKTVINCSISDDKSEYLFKFNSSFEIHDDTEVLMWMGMTFGLESGSCSAEDLKMARNLVPKALEPYVTEMAQGTFGGVFTTAGSRSNGTWLSASDLTNIAIGMLATSSGGSQYSGSRVETPAVEEEEEEDNNDDDLSENDEDD
B3: TFEC (protein, UniProt O14948 1-347, looked up)
Transcription factor EC: MTLDHQIINPTLKWSQPAVPSGGPLVQHAHTTLDSDAGLTENPLTKLLAIGKEDDNAQWHMEDVIEDIIGMESSFKEEGADSPLLMQRTLSGSILDVYSGEQGISPINMGLTSASCPSSLPMKREITETDTRALAKERQKKDNHNLIERRRRYNINYRIKELGTLIPKSNDPDMRWNKGTILKASVEYIKWLQKEQQRARELEHRQKKLEQANRRLLLRIQELEIQARTHGLPTLASLGTVDLGAHVTKQQSHPEQNSVDYCQQLTVSQGPSPELCDQAIAFSDPLSYFTDLSFSAALKEEQRLDGMLLDDTISPFGTDPLLSATSPAVSKESSRRSSFSSDDGDEL
B4: BLZF1 (protein, UniProt Q9H2G9 1-400, looked up)
Golgin-45: MTTKNLETKVTVTSSPIRGAGDGMETEEPPKSVEVTSGVQSRKHHSLQSPWKKAVPSESPGVLQLGKMLTEKAMEVKAVRILVPKAAITHDIPNKNTKVKSLGHHKGEFLGQSEGVIEPNKELSEVKNVLEKLKNSERRLLQDKEGLSNQLRVQTEVNRELKKLLVASVGDDLQYHFERLAREKNQLILENEALGRNTAQLSEQLERMSIQCDVWRSKFLASRVMADELTNSRAALQRQNRDAHGAIQDLLSEREQFRQEMIATQKLLEELLVSLQWGREQTYSPSVQPHSTAELALTNHKLAKAVNSHLLGNVGINNQKKIPSTVEFCSTPAEKMAETVLRILDPVTCKESSPDNPFFESSPTTLLATKKNIGRFHPYTRYENITFNCCNHCRGELIAL
B5: TGIF2LY (protein, UniProt Q8IUE0 1-185, looked up)
Homeobox protein TGIF2LY: MEAAADGPAETQSPVEKDSPAKTQSPAQDTSIMSRNNADTGRVLALPEHKKKRKGNLPAESVKILRDWMYKHRFKAYPSEEEKQMLSEKTNLSLLRISNWFINARRRILPDMLQQRRNDPIIGHKTGKDAHATHLQSTEASVPAKSGPVVQTMYKACPCGPCQRARCQERSNQIRSRPLARSSPE
B6: THAP1 (protein, UniProt Q9NVV9 1-213, looked up)
THAP domain-containing …: MVQSCSAYGCKNRYDKDKPVSFHKFPLTRPSLCKEWEAAVRRKNFKPTKYSSICSEHFTPDCFKRECNNKLLKENAVPTIFLCTEPHDKKEDLLEPQEQLPPPPLPPPVSQVDAAIGLLMPPLQTPVNLSVFCDHNYTVEDTMHQRKRIHQLEQQVEKLRKKLKTAQQRCRRQERQLEKLKEVVHFQKEKDDVSERGYVILPNDYFEIVEVPA
B7: THAP10 (protein, UniProt Q9P2Z0 1-257, looked up)
THAP domain-containing …: MPARCVAAHCGNTTKSGKSLFRFPKDRAVRLLWDRFVRGCRADWYGGNDRSVICSDHFAPACFDVSSVIQKNLRFSQRLRLVAGAVPTLHRVPAPAPKRGEEGDQAGRLDTRGELQAARHSEAAPGPVSCTRPRAGKQAAASQITCENELVQTQPHADNPSNTVTSVPTHCEEGPVHKSTQISLKRPRHRSVGIQAKVKAFGKRLCNATTQTEELWSRTSSLFDIYSSDSETDTDWDIKSEQSDLSYMAVQVKEETC
B8: THAP4 (protein, UniProt Q8WY91 1-577, looked up)
Peroxynitrite isomerase THAP4: MVICCAAVNCSNRQGKGEKRAVSFHRFPLKDSKRLIQWLKAVQRDNWTPTKYSFLCSEHFTKDSFSKRLEDQHRLLKPTAVPSIFHLTEKKRGAGGHGRTRRKDASKATGGVRGHSSAATSRGAAGWSPSSSGNPMAKPESRRLKQAALQGEATPRAAQEAASQEQAQQALERTPGDGLATMVAGSQGKAEASATDAGDESATSSIEGGVTDKSGISMDDFTPPGSGACKFIGSLHSYSFSSKHTRERPSVPREPIDRKRLKKDVEPSCSGSSLGPDKGLAQSPPSSSLTATPQKPSQSPSAPPADVTPKPATEAVQSEHSDASPMSINEVILSASGACKLIDSLHSYCFSSRQNKSQVCCLREQVEKKNGELKSLRQRVSRSDSQVRKLQEKLDELRRVSVPYPSSLLSPSREPPKMNPVVEPLSWMLGTWLSDPPGAGTYPTLQPFQYLEEVHISHVGQPMLNFSFNSFHPDTRKPMHRECGFIRLKPDTNKVAFVSAQNTGVVEVEEGEVNGQELCIASHSIARISFAKEPHVEQITRKFRLNSEGKLEQTVSMATTTQPMTQHLHVTYKKVTP
B9: THAP6 (protein, UniProt Q8TBB0 1-222, looked up)
THAP domain-containing …: MVKCCSAIGCASRCLPNSKLKGLTFHVFPTDENIKRKWVLAMKRLDVNAAGIWEPKKGDVLCSRHFKKTDFDRSAPNIKLKPGVIPSIFDSPYHLQGKREKLHCRKNFTLKTVPATNYNHHLVGASSCIEEFQSQFIFEHSYSVMDSPKKLKHKLDHVIGELEDTKESLRNVLDREKRFQKSLRKTIRELKDECLISQETANRLDTFCWDCCQESIEQDYIS
B10: THAP8 (protein, UniProt Q8NA92 1-274, looked up)
THAP domain-containing …: MPKYCRAPNCSNTAGRLGADNRPVSFYKFPLKDGPRLQAWLQHMGCEHWVPSCHQHLCSEHFTPSCFQWRWGVRYLRPDAVPSIFSRGPPAKSQRRTRSTQKPVSPPPPLQKNTPLPQSPAIPVSGPVRLVVLGPTSGSPKTVATMLLTPLAPAPTPERSQPEVPAQQAQTGLGPVLGALQRRVRRLQRCQERHQAQLQALERLAQQLHGESLLARARRGLQRLTTAQTLGPEESQTFTIICGGPDIAMVLAQDPAPATVDAKPELLDTRIPSA
B11: THRA (protein, UniProt P10827 1-490, looked up)
Thyroid hormone receptor alpha: MEQKPSKVECGSDPEENSARSPDGKRKRKNGQCSLKTSMSGYIPSYLDKDEQCVVCGDKATGYHYRCITCEGCKGFFRRTIQKNLHPTYSCKYDSCCVIDKITRNQCQLCRFKKCIAVGMAMDLVLDDSKRVAKRKLIEQNRERRRKEEMIRSLQQRPEPTPEEWDLIHIATEAHRSTNAQGSHWKQRRKFLPDDIGQSPIVSMPDGDKVDLEAFSEFTKIITPAITRVVDFAKKLPMFSELPCEDQIILLKGCCMEIMSLRAAVRYDPESDTLTLSGEMAVKREQLKNGGLGVVSDAIFELGKSLSAFNLDDTEVALLQAVLLMSTDRSGLLCVDKIEKSQEAYLLAFEHYVNHRKHNIPHFWPKLLMKEREVQSSILYKGAAAEGRPGGSLGVHPEGQQLLGMHVVQGPQVRQLEQQLGEAGSLQGPVLQHQSPKSPQQRLLELLHRSGILHARAVCGEDDSSEADSPSSSEEEPEVCEDLAGNAASP
B12: THRB (protein, UniProt P10828 1-461, looked up)
Thyroid hormone receptor beta: MTPNSMTENGLTAWDKPKHCPDREHDWKLVGMSEACLHRKSHSERRSTLKNEQSSPHLIQTTWTSSIFHLDHDDVNDQSVSSAQTFQTEEKKCKGYIPSYLDKDELCVVCGDKATGYHYRCITCEGCKGFFRRTIQKNLHPSYSCKYEGKCVIDKVTRNQCQECRFKKCIYVGMATDLVLDDSKRLAKRKLIEENREKRRREELQKSIGHKPEPTDEEWELIKTVTEAHVATNAQGSHWKQKRKFLPEDIGQAPIVNAPEGGKVDLEAFSHFTKIITPAITRVVDFAKKLPMFCELPCEDQIILLKGCCMEIMSLRAAVRYDPESETLTLNGEMAVTRGQLKNGGLGVVSDAIFDLGMSLSSFNLDDTEVALLQAVLLMSSDRPGLACVERIEKYQDSFLLAFEHYINYRKHHVTHFWPKLLMKVTDLRMIGACHASRFLHMKVECPTELFPPLFLEVFED
B13: TIEG (protein, UniProt Q13118 1-480, looked up)
Krueppel-like factor 10: MLNFGASLQQTAEERMEMISERPKESMYSWNKTAEKSDFEAVEALMSMSCSWKSDFKKYVENRPVTPVSDLSEEENLLPGTPDFHTIPAFCLTPPYSPSDFEPSQVSNLMAPAPSTVHFKSLSDTAKPHIAAPFKEEEKSPVSAPKLPKAQATSVIRHTADAQLCNHQTCPMKAASILNYQNNSFRRRTHLNVEAARKNIPCAAVSPNRSKCERNTVADVDEKASAALYDFSVPSSETVICRSQPAPVSPQQKSVLVSPPAVSAGGVPPMPVICQMVPLPANNPVVTTVVPSTPPSQPPAVCPPVVFMGTQVPKGAVMFVVPQPVVQSSKPPVVSPNGTRLSPIAPAPGFSPSAAKVTPQIDSSRIRSHICSHPGCGKTYFKSSHLKAHTRTHTGEKPFSCSWKGCERRFARSDELSRHRRTHTGEKKFACPMCDRRFMRSDHLTKHARRHLSAKKLPNWQMEVSKLNDIALPPTPAPTQ

system: HEK293FT cells transfected with TF library; test: Screening of TF condensates based on fluorescent puncta; type: cell-based; details: Figure 1B numerical data; TF library screen, one value per transcriptional factor
Method in brief: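 TF plasmids (final 1.6 μg/ml) reverse-transfected with PEI (4.8 μg/ml) into HEK293FT cells; after 60 h, cells cultured ±glucose for 12 h, fixed in 4% PFA and immunostained for Flag or GAL4 tags with Alexa 488 secondaries. Puncta scored by automated imaging of 50 random fields per well.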

Molecule	Z score of condensed fraction
B1	0.4642
B2	0.6635
B3	1.616
B4	-1.161
B5	1.271
B6	-0.6542
B7	1.236
B8	-0.8956
B9	2.571
B10	1.115
B11	-0.4575
B12	-0.3414
B13	1.047

Reference: PMC11574045, “A cofactor-induced repressive type of transcription factor condensation can be induced by synthetic peptides to suppress tumorigenesis” (The EMBO Journal, 2024)
